For eight molecules, OD492 nm, Neutralization titer for Frankfurt 1 strain (dilution factor) and Neutralization titer for Frankfurt 2 strain (dilution factor) results are on record in patent publication US20060121580A1.

Assay [1] has as its target SARS-CoV preparation (Frankfurt 1 strain). The assay can be described thus: phage ELISA on coated SARS-CoV preparation, plate 2 (no phage antibody 0.211).
For assay [2], the target named is SARS-CoV strain Frankfurt 1 (infectious virus). Nature of the assay: cell-based or functional assay.
The target in assay [3] is SARS-CoV strain Frankfurt 2 (infectious virus). Nature of the assay: cell-based or functional assay.
Assay [4] concerns the target fetal bovine serum (FBS), 10% preparation. Nature of the assay: phage ELISA on coated 10% FBS.

B1: SC03-026 (scFv)
scFv: AMAQVQLVQSGGGLVQPGGSLRLSCAASGFTFSSYAMHWVRQAPGKGLEYVSGISSNGGSTYYANSVKGRFTISRDNSKNTLYLQMGSLRAEDMAVYYCARTTNRAFDIWGQGTMVTVSSGTGGSGGTGSGTGGSTDIQMTQSPDSLAVSLGERATINCKSSQSILYSSNSKNYLGWYQQKPGQPPKLLIYWASTRESGVPDRFSGSGSGTDFTLTISSLQAEDVAVYYCQQYYSTPYSFGQGTKVEIKRAA
In assay [1], B1 returned an OD492 nm of 1.07 OD492 nm.

B2: bivalent scFv pyBi03-015C02 (scFv)
scFv: AMAEVQLVESGGGVVRPGGSLRLSCAASGFTFDDYGMSWVRQAPGKGLEWVSGINWNGGSTGYADSVKGRFTISRDNAKNSLYLQMNSLRAEDTAVYYCARGLSLRPWGQGTLVTVSRGGGGSGGGGSGGGGSSELTQDPAVSVALGQTVRITCQGDSLRSYYASWYQQKPGQAPVLVIYGKNNRPSGIPDRFSGSSSGNTASLTITGAQAEDEADYYCNSRDSSGNHVVFGGGTKLTVLGAAA
As to B2, in assay [2], the Neutralization titer for Frankfurt 1 strain (dilution factor) was less than 20. This molecule also gave a Neutralization titer for Frankfurt 2 strain (dilution factor) in assay [3] of less than 20.

B3: single-chain phage antibody SC03-015 (scFv)
scFv: B2 scFv
B3 yielded an OD492 nm in assay [4] of 0.077 OD492 nm.

B4: bivalent scFv pyBi03-012C02 (scFv)
scFv: AMAQVQLVQSGAEVKKPGASVKVSCKASGYTFTSYGISWVRQAPGQGLEWMGWISAYNGNTNYAQKLQGRVTMTTDTSTSTAYMELSSLRSDDTAVYYCARMFRKSSFDSWGQGTLVTVSRGGGGSGGGGSGGGGSSELTQDPAVSVALGQTVRITCQGDSLRSYYASWYQQKPGQAPVLVIYGKNNRPSGIPDRFSGSSSGNTASLTITGAQAEDEADYYCNSRDSSGNHVVFGGGTKLTVLGAAA
With B4, the Neutralization titer for Frankfurt 1 strain (dilution factor) in assay [2] is less than 20. The molecule further yielded a Neutralization titer for Frankfurt 2 strain (dilution factor) in assay [3] of less than 20.

B5: single-chain phage antibody SC03-012 (scFv)
scFv: B4 scFv
In turn, B5 returned an OD492 nm in assay [4] of 0.1 OD492 nm.

B6: bivalent scFv pyBi03-006C02 (scFv)
scFv: SMAEVQLVESGGGLVQPGGSLRLSCAASGFTFSGYPMHWVRQAPGKGLEWVAVISYDGSNKYYADSVKGRFTISRDNSKNTLYLQMNSLRAEDTAVYYCAKDGSPRTPSFDYWGQGTLVTVLEGTGGSGGTGSGTGTSELDIQMTQSPHSLSASVGDRVTITCRASQGISNYLAWYQQKPGKVPKLLIYAASTLQSGVPSRFSGSGSGTDFTLTISSLQPEDVGVYYCQQRFRTPVTFGQGTKLEIKRAAA
B6 had a Neutralization titer for Frankfurt 1 strain (dilution factor) in assay [2] of less than 20. In assay [3], this molecule gave a Neutralization titer for Frankfurt 2 strain (dilution factor) of less than 20.

B7: single-chain phage antibody SC03-006 (scFv)
scFv: B6 scFv
Regarding B7, the OD492 nm in assay [4] came to 0.086 OD492 nm.

B8: SC03-025 (scFv)
scFv: AMAEVQLVESGGGLVQPGGSLRLSCAASGFTFSSYAMHWVRQAPGKGLEYVSGISSNGGSTYYANSVKGRFTISRDNSKNTLYLQMGSLRAEDMAVYYCARTTNRAFDIWGQGTMVTVSSGTGGSGGTGSGTGGSTDIQLTQSPDSLAVSLGERATINCKSSQSVLYSSNNKNYLAWYQQKPGQPPKLLIYWASIRESGVPDRFSGSGSGTDFTLTISSLQAEDVAVYYCQQYYNIPYAFGQGTKLEIKRAA
In assay [1], B8 gave an OD492 nm of 1.64 OD492 nm.
